Data as given in patent publication CN101407546A (UNIV CHINA PHARMA, dated 2009).

Target: 人肿瘤坏死因子-α (hTNF-α) (human, UniProt P01375 77-233)
Test: cell-based or functional assay

人肿瘤坏死因子-α (hTNF-α), sequence (P01375 77-233 limits assumed): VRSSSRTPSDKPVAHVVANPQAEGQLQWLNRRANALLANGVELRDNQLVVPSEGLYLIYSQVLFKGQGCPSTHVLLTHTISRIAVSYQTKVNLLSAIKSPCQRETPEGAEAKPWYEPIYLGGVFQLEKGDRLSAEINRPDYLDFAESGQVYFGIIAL

B1: 全人源抗hTNF-α单链抗体F6 (scFv, V domains shown)
VH: QVQLLQSAAEVKKPGESLKISCKGSGYSFTSYWIGWVRQMPGKGLEWMGIIYPGDSDTRYSPSFQGQVTISADKSISTAYLQWSSLKASDTAVYYCARFCSPWGQGTLVTV
VL: LQSVLTQPPSVSEAPRQRVTISCSGSSSNIGNNAVNWYQQLPGKAPKLLIYYDDLLPSGVSDRFSGSKSGTSASLAISGLQSEDEADYYCAAWDDSLCVFGGGTKLTVLG
对TNF-α诱导的L929细胞毒性的抑制作用 (L929 cytotoxicity neutralisation, MTT) IC50: ~15 nM
